# Laboratory results published in patent US9011842.
# Several values for one entry are separate records, joined by “and”; a condition that tells them apart may be missing. Identical values can stand only once.
# T1: 33-mer peptide fragment of α-gliadin, LQLQPFPQPQLPYPQPQLPYPQPQLPYPQPQPF (SEQ ID NO:1)
# T1 chain: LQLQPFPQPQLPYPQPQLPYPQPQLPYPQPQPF
# B1: Carboxypeptidase Y derived from Saccharomyces cerevisiae (protein)
# chain: KIKDPKILGIDPNVTQYTGYLDVEDEDKHFFFWTFESRNDPAKDPVILWLNGGPGCSSLTGLFFELGPSSIGPDLKPIGNPYSWNSNATVIFLDQPVNVGFSYSGSSGVSNTVAAGKDVYNFLELFFDQFPEYVNKGQDFHIAGESYAGHYIPVFASEILSHKDRNFNLTSVLIGNGLTDPLTQYNYYEPMACGEGGEPSVLPSEECSAMEDSLERCLGLIESCYDSQSVWSCVPATIYCNNAQLAPYQRTGRNVYDIRKDCEGGNLCYPTLQDIDDYLNQDYVKEAVGAEVDHYESCNFDINRNFLFAGDWMKPYHTAVTDLLNQDLPILVYAGDKDFICNWLGNKAWTDVLPWKYDEEFASQKVRNWTASITDEVAGEVKSYKHFTYLRVFNGGHMVPFDVPENALSMVNEWIHGGFSL
# B2: Oryzin (protein)
# chain: GLTTQKSAPWGLGSISHKGQQSTDYIYDTSAGEGTYAYVVDSGVNVDHEEFEGRASKAYNAAGGQHVDSIGHGTHVSGTIAGKTYGIAKKASILSVKVFQGESSSTSVILDGFNWAANDIVSKKRTSKAAINMSLGGGYSKAFNDAVENAFEQGVLSVVAAGNENSDAGQTSPASAPDAITVAAIQKSNNRASFSNFGKVVDVFAPGQDILSAWIGSSSATNTISGTSMATPHIVGLSLYLAALENLDGPAAVTKRIKELATKDVVKDVKGSPNLLAYNGNA
# B3: Neutral protease II (protein)
# chain: TEVTDCKGDAESSLTTALSNAAKLANQAAEAAESGDESKFEEYFKTTDQQTRTTVAERLRAVAKEAGSTSGGSTTYHCNDPYGYCEPNVLAYTLPSKNEIANCDIYYSELPPLAQKCHAQDQATTTLHEFTHAPGVYQPGTEDLGYGYDAATQLSAQDALNNADSYALYANAIELKC
# B4: proteinase K (protein)
# chain: AAQTNAPWGLARISSTSPGTSTYYYDESAGQGSCVYVIDTGIEASHPEFEGRAQMVKTYYYSSRDGNGHGTHCAGTVGSRTYGVAKKTQLFGVKVLDDNGSGQYSTIIAGMDFVASDKNNRNCPKGVVASLSLGGGYSSSVNSAAARLQSSGVMVAVAAGNNNADARNYSPASEPSVCTVGASDRYDRRSSFSNYGSVLDIFGPGTSILSTWIGGSTRSISGTSMATPHVAGLAAYLMTLGKTTAASACRYIADTANKGDLSNIPFGTVNLLAYNNYQA
# B5: papain (protein)
# chain: IPEYVDWRQKGAVTPVKNQGSCGSCWAFSAVVTIEGIIKIRTGNLNEYSEQELLDCDRRSYGCNGGYPWSALQLVAQYGIHYRNTYPYEGVQRYCRSREKGPYAAKTDGVRQVQPYNEGALLYSIANQPVSVVLEAAGKDFQLYRGGIFVGPCGNKVDHAVAAVGYGPNYILIKNSWGTGWGENGYIRIKRGTGNSYGVCGLYTSSFYPVKN
# Molecular target: T1, 33-mer peptide fragment of α-gliadin, …
protein,measurement,value
B1,"digestion of the 33-mer peptide (HPLC-MS), in vitro gastrointestinal model with pepsin, trypsin and chymotrypsin present","GDEP-M, CPY, and the combination of GDEP-M and CPY efficiently digested the 33-mer peptide in the artificial gastrointestinal condition"
same,"hydrolysis of the 33-mer peptide (HPLC-MS and ELISA), pH 5.0","CPY, MX-PEP, and AN-PEP hydrolyze the 33-mer peptide. AN-PEP appears to have the strongest activity against the 33-mer peptide, followed by CPY and then MX-PEP"
same,"hydrolysis of the 33-mer peptide (HPLC-MS), 4 hours, SIF pH 6.8",CPY efficiently hydrolyzed the 33-mer peptide and residual peptides were approximately 20 amino acids in length
same,"hydrolysis of the 33-mer peptide (HPLC-MS), 4 hours, buffer pH 4.0 to 7.0",CPY completely hydrolyzed the 33-mer peptide at acidic pH
same,"percent of the 33-mer peptide digested (ELISA), in vitro gastrointestinal model with pepsin, trypsin and chymotrypsin present",CPY alone digested about 95% of the 33-mer peptide
B2,"degradation of the 33-mer peptide (ELISA of intact 33-mer), 0.1 mg/ml enzyme, SIF pH 6.8",Oryzin alone did not degrade the 33-mer peptide
same,"degradation of the 33-mer peptide (ELISA), 60 min, SIF pH 6.8, lowest enzyme concentrations","Oryzin, at the lowest concentrations, did not degrade the 33-mer peptide"
same,"percent of the 33-mer peptide degraded (ELISA), 60 min, SIF pH 6.8, 0.4 mg/ml and 0.8 mg/ml enzyme","at higher concentrations (0.4 mg/ml and 0.8 mg/ml), Oryzin degraded about 10% to about 20% of the 33-mer peptide"
B3,"degradation of the 33-mer peptide (ELISA of intact 33-mer), 0.1 mg/ml enzyme, SIF pH 6.8",NP I and NP II each exhibited a limited ability to degrade the 33-mer peptide
same,"percent of the 33-mer peptide degraded (ELISA), 60 min, SIF pH 6.8",NP II alone degraded about 20% to about 30% of the 33-mer peptide
B4,"hydrolysis of the 33-mer peptide (HPLC-MS), 15 hours, SIF pH 6.8","at intestinal conditions (pH≈6.8), proteinase K did not hydrolyze most of the 33-mer peptide"
B5,"hydrolysis of the 33-mer peptide (HPLC-MS), 1 hour, pH 4.5",Papain completely hydrolyzed the 33-mer peptide at a pH of about 4.5
